# Measurements reported in US20260184814A1, “BROADLY NE[…] INFLUENZA NEURAMINIDASE” (priority 2022, published 2026).
# Where “and” joins values, the source holds several entries; their conditions need not be identical. Identical values can stand only once. Like-named read-outs stand apart in the source and are kept apart here.
# Columns and labels:
# [1] = target: human FcγRIIIa (F158 allele) (human) (UniProt P08637); assay: MSD
# [2] = target: human FcγRIIb (human) (UniProt P31994); assay: MSD
# [3] = target: human FcγRIIIb (human) (UniProt O75015); assay: MSD
# Chain of human FcγRIIIb (human) (O75015 17-200 limits assumed): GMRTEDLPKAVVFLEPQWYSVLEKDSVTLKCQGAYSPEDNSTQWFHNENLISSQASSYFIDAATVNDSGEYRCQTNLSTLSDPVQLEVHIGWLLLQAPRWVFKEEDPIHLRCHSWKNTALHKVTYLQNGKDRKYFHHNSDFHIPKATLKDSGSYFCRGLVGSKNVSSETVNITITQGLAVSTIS
# [4] = target: human FcγRIIa (H131 allele) (human) (UniProt P12318); assay: MSD
# Chain of human FcγRIIa (H131 allele) (human) (P12318 34-218 limits assumed): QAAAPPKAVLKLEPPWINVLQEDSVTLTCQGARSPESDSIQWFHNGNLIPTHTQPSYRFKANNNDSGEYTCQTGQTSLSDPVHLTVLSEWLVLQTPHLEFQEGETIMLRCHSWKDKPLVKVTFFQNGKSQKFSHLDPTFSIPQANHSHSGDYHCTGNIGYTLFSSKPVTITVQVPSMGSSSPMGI
# [5] = target: human FcRn (human) (UniProt P55899); assay: MSD
# Chain of human FcRn (human) (P55899 24-297 limits assumed, chain 1 of 2): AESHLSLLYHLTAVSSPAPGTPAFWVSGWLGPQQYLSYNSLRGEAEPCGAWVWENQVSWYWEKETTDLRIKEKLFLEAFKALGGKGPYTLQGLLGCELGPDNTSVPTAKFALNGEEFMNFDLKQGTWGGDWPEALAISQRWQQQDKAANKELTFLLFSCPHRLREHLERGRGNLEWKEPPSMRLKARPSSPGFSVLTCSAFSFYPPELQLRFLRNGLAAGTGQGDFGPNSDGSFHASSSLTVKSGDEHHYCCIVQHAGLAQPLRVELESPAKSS
# Chain of human FcRn (human) (chain, as listed by the source limits assumed, chain 2 of 2): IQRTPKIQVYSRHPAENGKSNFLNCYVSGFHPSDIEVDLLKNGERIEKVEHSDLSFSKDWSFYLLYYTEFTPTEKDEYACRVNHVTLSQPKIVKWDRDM
# [6] = target: human FcγRIIa (R131 allele) (human) (UniProt P12318); assay: MSD
# Chain of human FcγRIIa (R131 allele) (human) (P12318 34-218 H167R limits assumed): as the sequence (P12318 34-218 limits assumed) above, with H134R counted along it
# [7] = target: human FcγRIIIa (V158 allele) (human) (UniProt P08637); assay: MSD
# Chain of human FcγRIIIa (V158 allele) (human) (P08637 17-208 F176V limits assumed): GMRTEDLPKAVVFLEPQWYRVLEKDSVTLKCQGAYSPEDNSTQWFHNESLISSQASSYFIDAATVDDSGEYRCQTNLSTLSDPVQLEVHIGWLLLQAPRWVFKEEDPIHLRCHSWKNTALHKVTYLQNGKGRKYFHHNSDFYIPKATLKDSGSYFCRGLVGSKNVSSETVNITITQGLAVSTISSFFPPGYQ
# [8] = target: human C1q (human) (UniProt P02745); assay: MSD
# Chain of human C1q (human) (P02745 23-245 limits assumed, chain 1 of 3): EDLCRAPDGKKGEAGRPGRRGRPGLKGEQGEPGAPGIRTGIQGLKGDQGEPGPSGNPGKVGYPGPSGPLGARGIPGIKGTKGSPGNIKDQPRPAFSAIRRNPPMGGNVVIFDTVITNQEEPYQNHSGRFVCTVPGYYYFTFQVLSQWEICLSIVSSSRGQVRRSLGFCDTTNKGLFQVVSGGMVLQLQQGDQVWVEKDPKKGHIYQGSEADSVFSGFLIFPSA
# Chain of human C1q (human) (P02746 28-253 limits assumed, chain 2 of 3, further chain): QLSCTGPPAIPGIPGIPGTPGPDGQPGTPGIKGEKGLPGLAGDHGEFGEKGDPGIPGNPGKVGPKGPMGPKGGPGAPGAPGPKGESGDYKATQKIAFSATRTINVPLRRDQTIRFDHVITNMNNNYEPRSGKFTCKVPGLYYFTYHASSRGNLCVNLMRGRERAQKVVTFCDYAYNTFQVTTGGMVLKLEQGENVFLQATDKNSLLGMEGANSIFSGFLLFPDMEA
# Chain of human C1q (human) (P02747 29-245 limits assumed, chain 3 of 3, further chain): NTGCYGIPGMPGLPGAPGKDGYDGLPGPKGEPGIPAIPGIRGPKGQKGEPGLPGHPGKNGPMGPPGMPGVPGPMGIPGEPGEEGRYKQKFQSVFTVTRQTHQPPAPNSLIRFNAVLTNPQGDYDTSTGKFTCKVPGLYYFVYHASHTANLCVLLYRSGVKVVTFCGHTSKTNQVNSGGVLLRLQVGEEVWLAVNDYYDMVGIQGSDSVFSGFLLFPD
# [9] = target: human FcγRIIIa (F158 allele) (human) (UniProt P08637)
# [10] = target: human FcγRIIb (human) (UniProt P31994)
# [11] = target: human FcγRIIa (H131 allele) (human) (UniProt P12318)
# [12] = target: human FcγRIIIa (V158 allele) (human) (UniProt P08637)
# [13] = target: human FcγRIIb (human) (UniProt P31994); assay: MSD electrochemiluminescence binding assay; column IIB
# [14] = target: human FcRn (human) (UniProt P55899); assay: MSD electrochemiluminescence binding assay; column FcRn
# [15] = target: human C1q (human) (UniProt P02745); assay: MSD [cont'd]
# [16] = target: human FcRn (human) (UniProt P55899); assay: MSD [cont'd]
# [17] = target: human FcγRIIIb (human) (UniProt O75015); assay: MSD electrochemiluminescence binding assay; column IIIB
# [18] = target: human FcγRIIIa (F158 allele) (human) (UniProt P08637); assay: MSD electrochemiluminescence binding assay; column IIIA_F
# [19] = target: human FcγRIIa (H131 allele) (human) (UniProt P12318); assay: MSD electrochemiluminescence binding assay; column IIA_H
# [20] = target: human FcγRIIa (R131 allele) (human) (UniProt P12318); assay: MSD electrochemiluminescence binding assay; column IIA_R
# [21] = target: human FcγRIIIa (V158 allele) (human) (UniProt P08637); assay: MSD electrochemiluminescence binding assay; column IIIA_V
# [22] = target: human FcγRIIIa (F158 allele) (human) (UniProt P08637); assay: MSD [cont'd]
# [23] = target: human C1q (human) (UniProt P02745); assay: MSD [cont'd]; remark: listed apart in the source
# [24] = target: human FcRn (human) (UniProt P55899); assay: MSD, pH 6 [cont'd]
# [25] = target: human FcγRIIIa (F158 allele) (human) (UniProt P08637); remark: listed apart in the source
# [26] = target: human FcγRIIb (human) (UniProt P31994); remark: listed apart in the source
# [27] = target: human FcγRIIa (H131 allele) (human) (UniProt P12318); remark: listed apart in the source
# Chain of human FcγRIIb (human) (P31994 43-217 limits assumed): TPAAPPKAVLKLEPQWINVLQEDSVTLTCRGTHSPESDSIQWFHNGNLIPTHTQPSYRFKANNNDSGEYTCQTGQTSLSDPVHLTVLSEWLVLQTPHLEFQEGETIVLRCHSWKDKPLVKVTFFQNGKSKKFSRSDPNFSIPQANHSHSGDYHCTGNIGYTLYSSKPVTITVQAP
# Chain of human FcγRIIIa (F158 allele) (human) (P08637 17-208 limits assumed): as the sequence (P08637 17-208 F176V limits assumed) above, with V160F counted along it
substance,measurement,setting,value
GRLR (Fc-LS) (antibody),fold-change vs FY1 rIgG1m3-MLNS,[1],0.25 fold
same,fold-change vs FY1 rIgG1m3-MLNS,[2],0.38 fold
same,fold-change vs FY1 rIgG1m3-MLNS,[3],0.7 fold
same,fold-change vs FY1 rIgG1m3-MLNS,[4],0.28 fold
same,fold-change vs FY1 rIgG1m3-MLNS,[5],0.69 fold
same,fold-change vs FY1 rIgG1m3-MLNS,[6],0.38 fold
same,fold-change vs FY1 rIgG1m3-MLNS,[7],0.08 fold
IgG1 antibody with Fc variant G236A (afucosylated),fold-change (reference not given),[1],17.2 fold and 35.6 fold
same,fold-change (reference not given),[2],0.6 fold and 1.1 fold
same,fold-change (reference not given),[3],2.1 fold and 1.8 fold
same,fold-change (reference not given),[4],5.4 fold and 9.5 fold
same,fold-change (reference not given),[8],0.16 fold
same,fold-change (reference not given),[6],6.1 fold and 9.9 fold
same,fold-change (reference not given),[7],6.7 fold
IgG1 antibody with Fc variant G236A_K334A_Q295E,fold-change vs wt,[1],0.74 fold
same,fold-change vs wt,[2],0.67 fold
same,fold-change vs wt,[3],0.72 fold
same,fold-change vs wt,[4],4.96 fold
same,fold-change vs wt,[6],2.92 fold
same,fold-change vs wt,[7],0.27 fold
same,"FcγR reporter signaling, fold-change vs wt [cont'd]",[9],0.23 fold
same,"FcγR reporter signaling, fold-change vs wt [cont'd]",[10],0.8 fold
same,"FcγR reporter signaling, fold-change vs wt [cont'd]",[11],2.13 fold
same,"FcγR reporter signaling, fold-change vs wt [cont'd]",[12],0.36 fold
same,fold-change in binding vs wild-type IgG1,[13],0.4
same,fold-change in binding vs wild-type IgG1,[14],1.02
same,fold-change vs wt,[15],0.9 fold
same,fold-change vs wt,[16],1.02 fold
same,fold-change in binding vs wild-type IgG1,[17],0.72
same,fold-change in binding vs wild-type IgG1,[18],0.74
same,fold-change in binding vs wild-type IgG1,[19],5.01
same,fold-change in binding vs wild-type IgG1,[20],2.88
same,fold-change in binding vs wild-type IgG1,[21],0.27
IgG1 antibody with Fc variant G236A_P230A_Q295E,fold-change vs wt,[1],0.48 fold
same,fold-change vs wt,[2],0.54 fold
same,fold-change vs wt,[3],0.72 fold
same,fold-change vs wt,[4],7.67 fold
same,fold-change vs wt,[6],4.57 fold
same,fold-change vs wt,[7],0.31 fold
same,"FcγR reporter signaling, fold-change vs wt [cont'd]",[9],0.02 fold
same,"FcγR reporter signaling, fold-change vs wt [cont'd]",[10],0.56 fold
same,"FcγR reporter signaling, fold-change vs wt [cont'd]",[11],2.29 fold
same,"FcγR reporter signaling, fold-change vs wt [cont'd]",[12],0.06 fold
same,fold-change in binding vs wild-type IgG1,[13],0.48
same,fold-change in binding vs wild-type IgG1,[14],0.93
same,fold-change vs wt,[15],0.3 fold
same,fold-change vs wt,[16],0.93 fold
same,fold-change in binding vs wild-type IgG1,[17],0.72
same,fold-change in binding vs wild-type IgG1,[18],0.48
same,fold-change in binding vs wild-type IgG1,[19],7.59
same,fold-change in binding vs wild-type IgG1,[20],4.57
same,fold-change in binding vs wild-type IgG1,[21],0.31
IgG1 antibody with Fc variant G236A_Y300L,fold-change vs FY1 rIgG1m3,[1],1 fold
same,fold-change vs FY1 rIgG1m3,[2],1.1 fold
same,fold-change vs FY1 rIgG1m3,[3],0.97 fold
same,fold-change vs FY1 rIgG1m3,[4],18.2 fold
same,fold-change vs FY1 rIgG1m3,[8],0.98 fold
same,fold-change vs FY1 rIgG1m3,[6],4.6 fold
same,fold-change vs FY1 rIgG1m3,[7],0.9 fold
IgG1 antibody with Fc variant G236S_R292P_Y300L,fold-change vs wt,[1],1.06 fold
same,fold-change to WT Fc,[2],0.817 fold
same,fold-change vs wt,[2],0.82 fold
same,fold-change vs wt,[3],1.04 fold
same,fold-change to WT Fc,[4],10.9 fold
same,fold-change vs wt,[4],10.8 fold
same,fold-change to WT Fc,[6],1.34 fold
same,fold-change vs wt,[6],1.34 fold
same,fold-change to WT Fc,[7],0.753 fold
same,fold-change vs wt,[7],0.75 fold
same,"FcγR reporter signaling, fold-change vs wt [cont'd]",[9],1.52 fold
same,"FcγR reporter signaling, fold-change vs wt [cont'd]",[10],0.93 fold
same,"FcγR reporter signaling, fold-change vs wt [cont'd]",[11],2.24 fold
same,"FcγR reporter signaling, fold-change vs wt [cont'd]",[12],1.32 fold
same,fold-change to WT Fc,[22],1.06 fold
same,fold-change to WT Fc,[15],1.98 fold
same,fold-change vs wt,[15],1.98 fold
same,fold-change vs wt,[16],0.87 fold
same,fold-change vs wt,[23],1.96 fold
same,fold-change to WT Fc,[24],0.87 fold
L309T_P238D_P396L_T366A (antibody),"FcγR reporter signaling, fold-change vs wt [cont'd]",[25],0.05 fold
same,"FcγR reporter signaling, fold-change vs wt [cont'd]",[26],0.91 fold
same,"FcγR reporter signaling, fold-change vs wt [cont'd]",[27],0.04 fold
